We go through eight molecules from US20150299281A1 (ZEALAND PHARMA A S, published 2015).

Numbered stars: 1 amine (or outer) side, 2 acyl side, 3 side chain; on linkers, the order of the positions; unused ones are H or OH. Square brackets hold non-standard residues; d marks the D form. Side chains are listed from the residue outwards. * marks the point of attachment. C16 diacid = O=C(O)CCCCCCCCCCCCCCC(=O)*; γGlu = O=C(O)[C@H](CCC(=O)[*:2])N[*:1]; Palmitoyl = CCCCCCCCCCCCCCCC(=O)*; Aib = CC(C)(N)C(=O)O

Test [1] concerns the target T1, human GIP receptor (human, UniProt P48546 22-466).
T1 sequence (looked up): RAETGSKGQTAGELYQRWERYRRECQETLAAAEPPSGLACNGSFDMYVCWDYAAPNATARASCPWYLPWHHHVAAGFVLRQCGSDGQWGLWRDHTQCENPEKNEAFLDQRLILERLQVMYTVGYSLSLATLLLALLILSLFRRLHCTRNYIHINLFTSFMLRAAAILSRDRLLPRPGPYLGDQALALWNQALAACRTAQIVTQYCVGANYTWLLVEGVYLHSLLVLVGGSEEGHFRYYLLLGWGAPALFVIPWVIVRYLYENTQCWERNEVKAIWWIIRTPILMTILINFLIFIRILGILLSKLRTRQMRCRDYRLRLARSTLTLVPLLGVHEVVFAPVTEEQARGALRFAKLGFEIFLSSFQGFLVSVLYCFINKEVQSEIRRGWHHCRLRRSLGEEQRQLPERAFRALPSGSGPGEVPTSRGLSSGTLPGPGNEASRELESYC
Briefly: cell-based or functional assay.

The target of test [2] is human GLP-1 receptor (human, UniProt P43220 24-463). Description: cell-based or functional assay.

B1: Compound 32 (peptide)
peptide: H-Y[Aib]EGTFTSDYSI[Aib]LDKK([γGlu-Palmitoyl])AQRAFVEWLLAQGPSSGAPPPS-NH2
SMILES: CCCCCCCCCCCCCCCC(=O)N[C@@H](CCC(=O)NCCCC[C@H](NC(=O)[C@H](CCCCN)NC(=O)[C@H](CC(=O)O)NC(=O)[C@H](CC(C)C)NC(=O)C(C)(C)NC(=O)[C@@H](NC(=O)[C@H](CO)NC(=O)[C@H](Cc1ccc(O)cc1)NC(=O)[C@H](CC(=O)O)NC(=O)[C@H](CO)NC(=O)[C@@H](NC(=O)[C@H](Cc1ccccc1)NC(=O)[C@@H](NC(=O)CNC(=O)[C@H](CCC(=O)O)NC(=O)C(C)(C)NC(=O)[C@@H](N)Cc1ccc(O)cc1)[C@@H](C)O)[C@@H](C)O)[C@@H](C)CC)C(=O)N[C@@H](C)C(=O)N[C@@H](CCC(N)=O)C(=O)N[C@@H](CCCNC(=N)N)C(=O)N[C@@H](C)C(=O)N[C@@H](Cc1ccccc1)C(=O)N[C@H](C(=O)N[C@@H](CCC(=O)O)C(=O)N[C@@H](Cc1c[nH]c2ccccc12)C(=O)N[C@@H](CC(C)C)C(=O)N[C@@H](CC(C)C)C(=O)N[C@@H](C)C(=O)N[C@@H](CCC(N)=O)C(=O)NCC(=O)N1CCC[C@H]1C(=O)N[C@@H](CO)C(=O)N[C@@H](CO)C(=O)NCC(=O)N[C@@H](C)C(=O)N1CCC[C@H]1C(=O)N1CCC[C@H]1C(=O)N1CCC[C@H]1C(=O)N[C@@H](CO)C(N)=O)C(C)C)C(=O)O
As for B1, the “EC50, cAMP induction in HEK293 cells expressing human GIP R” value in test [1] was determined as 0.012 nM. Besides, the “EC50, cAMP induction in HEK293 cells expressing human GLP-1 R” value in test [2] is 0.018 nM.

B2: Compound 34 (peptide)
peptide: H-Y[Aib]EGTFTSDYSIYLDEK([γGlu-Palmitoyl])AAKEFIEWLESA-NH2
SMILES: CCCCCCCCCCCCCCCC(=O)N[C@@H](CCC(=O)NCCCC[C@H](NC(=O)[C@H](CCC(=O)O)NC(=O)[C@H](CC(=O)O)NC(=O)[C@H](CC(C)C)NC(=O)[C@H](Cc1ccc(O)cc1)NC(=O)[C@@H](NC(=O)[C@H](CO)NC(=O)[C@H](Cc1ccc(O)cc1)NC(=O)[C@H](CC(=O)O)NC(=O)[C@H](CO)NC(=O)[C@@H](NC(=O)[C@H](Cc1ccccc1)NC(=O)[C@@H](NC(=O)CNC(=O)[C@H](CCC(=O)O)NC(=O)C(C)(C)NC(=O)[C@@H](N)Cc1ccc(O)cc1)[C@@H](C)O)[C@@H](C)O)[C@@H](C)CC)C(=O)N[C@@H](C)C(=O)N[C@@H](C)C(=O)N[C@@H](CCCCN)C(=O)N[C@@H](CCC(=O)O)C(=O)N[C@@H](Cc1ccccc1)C(=O)N[C@H](C(=O)N[C@@H](CCC(=O)O)C(=O)N[C@@H](Cc1c[nH]c2ccccc12)C(=O)N[C@@H](CC(C)C)C(=O)N[C@@H](CCC(=O)O)C(=O)N[C@@H](CO)C(=O)N[C@@H](C)C(N)=O)[C@@H](C)CC)C(=O)O
Take B2: the “EC50, cAMP induction in HEK293 cells expressing human GIP R” value in test [1] came to 0.045 nM. Besides, in test [2], the “EC50, cAMP induction in HEK293 cells expressing human GLP-1 R” value amounted to 0.031 nM.

B3: Compound 37 (peptide)
peptide: H-Y[Aib]EGTFTSDYSIYLEKKAAKDFVEWLLSA-NH2
SMILES: CC[C@H](C)[C@H](NC(=O)[C@H](CO)NC(=O)[C@H](Cc1ccc(O)cc1)NC(=O)[C@H](CC(=O)O)NC(=O)[C@H](CO)NC(=O)[C@@H](NC(=O)[C@H](Cc1ccccc1)NC(=O)[C@@H](NC(=O)CNC(=O)[C@H](CCC(=O)O)NC(=O)C(C)(C)NC(=O)[C@@H](N)Cc1ccc(O)cc1)[C@@H](C)O)[C@@H](C)O)C(=O)N[C@@H](Cc1ccc(O)cc1)C(=O)N[C@@H](CC(C)C)C(=O)N[C@@H](CCC(=O)O)C(=O)N[C@@H](CCCCN)C(=O)N[C@@H](CCCCN)C(=O)N[C@@H](C)C(=O)N[C@@H](C)C(=O)N[C@@H](CCCCN)C(=O)N[C@@H](CC(=O)O)C(=O)N[C@@H](Cc1ccccc1)C(=O)N[C@H](C(=O)N[C@@H](CCC(=O)O)C(=O)N[C@@H](Cc1c[nH]c2ccccc12)C(=O)N[C@@H](CC(C)C)C(=O)N[C@@H](CC(C)C)C(=O)N[C@@H](CO)C(=O)N[C@@H](C)C(N)=O)C(C)C
On to B3, for which the “EC50, cAMP induction in HEK293 cells expressing human GIP R” value in test [1] turned out to be 0.0097 nM. Further, the “EC50, cAMP induction in HEK293 cells expressing human GLP-1 R” value in test [2] is 0.018 nM.

B4: Compound 4 (peptide)
peptide: H-Y[Aib]EGTFISDYSIYLEKIAAKEFVNWLLAQK-NH2
Take B4: in test [1], the “EC50, cAMP induction in HEK293 cells expressing human GIP R” value came out at 0.022 nM. The “EC50, cAMP induction in HEK293 cells expressing human GLP-1 R” value in test [2] turned out to be 2.6 nM.

B5: Compound 38 (peptide)
peptide: H-Y[Aib]EGTFTSDYSIYLEKKAAHDFVEWLLSA-NH2
SMILES: CC[C@H](C)[C@H](NC(=O)[C@H](CO)NC(=O)[C@H](Cc1ccc(O)cc1)NC(=O)[C@H](CC(=O)O)NC(=O)[C@H](CO)NC(=O)[C@@H](NC(=O)[C@H](Cc1ccccc1)NC(=O)[C@@H](NC(=O)CNC(=O)[C@H](CCC(=O)O)NC(=O)C(C)(C)NC(=O)[C@@H](N)Cc1ccc(O)cc1)[C@@H](C)O)[C@@H](C)O)C(=O)N[C@@H](Cc1ccc(O)cc1)C(=O)N[C@@H](CC(C)C)C(=O)N[C@@H](CCC(=O)O)C(=O)N[C@@H](CCCCN)C(=O)N[C@@H](CCCCN)C(=O)N[C@@H](C)C(=O)N[C@@H](C)C(=O)N[C@@H](Cc1c[nH]cn1)C(=O)N[C@@H](CC(=O)O)C(=O)N[C@@H](Cc1ccccc1)C(=O)N[C@H](C(=O)N[C@@H](CCC(=O)O)C(=O)N[C@@H](Cc1c[nH]c2ccccc12)C(=O)N[C@@H](CC(C)C)C(=O)N[C@@H](CC(C)C)C(=O)N[C@@H](CO)C(=O)N[C@@H](C)C(N)=O)C(C)C
As to B5, in test [1], the “EC50, cAMP induction in HEK293 cells expressing human GIP R” value was found to be 0.007 nM. Moreover, the “EC50, cAMP induction in HEK293 cells expressing human GLP-1 R” value in test [2] is 0.018 nM.

B6: Compound 35 (peptide)
peptide: H-Y[Aib]EGTFTSDYSIYLDKK([γGlu-Palmitoyl])AQRAFVNWLLA[Aib]KPSSGAPPPS-NH2
SMILES: CCCCCCCCCCCCCCCC(=O)N[C@@H](CCC(=O)NCCCC[C@H](NC(=O)[C@H](CCCCN)NC(=O)[C@H](CC(=O)O)NC(=O)[C@H](CC(C)C)NC(=O)[C@H](Cc1ccc(O)cc1)NC(=O)[C@@H](NC(=O)[C@H](CO)NC(=O)[C@H](Cc1ccc(O)cc1)NC(=O)[C@H](CC(=O)O)NC(=O)[C@H](CO)NC(=O)[C@@H](NC(=O)[C@H](Cc1ccccc1)NC(=O)[C@@H](NC(=O)CNC(=O)[C@H](CCC(=O)O)NC(=O)C(C)(C)NC(=O)[C@@H](N)Cc1ccc(O)cc1)[C@@H](C)O)[C@@H](C)O)[C@@H](C)CC)C(=O)N[C@@H](C)C(=O)N[C@@H](CCC(N)=O)C(=O)N[C@@H](CCCNC(=N)N)C(=O)N[C@@H](C)C(=O)N[C@@H](Cc1ccccc1)C(=O)N[C@H](C(=O)N[C@@H](CC(N)=O)C(=O)N[C@@H](Cc1c[nH]c2ccccc12)C(=O)N[C@@H](CC(C)C)C(=O)N[C@@H](CC(C)C)C(=O)N[C@@H](C)C(=O)NC(C)(C)C(=O)N[C@@H](CCCCN)C(=O)N1CCC[C@H]1C(=O)N[C@@H](CO)C(=O)N[C@@H](CO)C(=O)NCC(=O)N[C@@H](C)C(=O)N1CCC[C@H]1C(=O)N1CCC[C@H]1C(=O)N1CCC[C@H]1C(=O)N[C@@H](CO)C(N)=O)C(C)C)C(=O)O
With B6, the “EC50, cAMP induction in HEK293 cells expressing human GIP R” value in test [1] worked out at 0.028 nM. Moreover, the “EC50, cAMP induction in HEK293 cells expressing human GLP-1 R” value in test [2] amounted to 0.022 nM.

B7: Compound 31 (peptide)
peptide: H-Y[Aib]EGTFTSDYSIYLDKK([γGlu-C16 diacid])AQRAFVNWLLA[Aib]K-NH2
SMILES: CC[C@H](C)[C@H](NC(=O)[C@H](CO)NC(=O)[C@H](Cc1ccc(O)cc1)NC(=O)[C@H](CC(=O)O)NC(=O)[C@H](CO)NC(=O)[C@@H](NC(=O)[C@H](Cc1ccccc1)NC(=O)[C@@H](NC(=O)CNC(=O)[C@H](CCC(=O)O)NC(=O)C(C)(C)NC(=O)[C@@H](N)Cc1ccc(O)cc1)[C@@H](C)O)[C@@H](C)O)C(=O)N[C@@H](Cc1ccc(O)cc1)C(=O)N[C@@H](CC(C)C)C(=O)N[C@@H](CC(=O)O)C(=O)N[C@@H](CCCCN)C(=O)N[C@@H](CCCCNC(=O)CC[C@H](NC(=O)CCCCCCCCCCCCCCC(=O)O)C(=O)O)C(=O)N[C@@H](C)C(=O)N[C@@H](CCC(N)=O)C(=O)N[C@@H](CCCNC(=N)N)C(=O)N[C@@H](C)C(=O)N[C@@H](Cc1ccccc1)C(=O)N[C@H](C(=O)N[C@@H](CC(N)=O)C(=O)N[C@@H](Cc1c[nH]c2ccccc12)C(=O)N[C@@H](CC(C)C)C(=O)N[C@@H](CC(C)C)C(=O)N[C@@H](C)C(=O)NC(C)(C)C(=O)N[C@@H](CCCCN)C(N)=O)C(C)C
Regarding B7, the “EC50, cAMP induction in HEK293 cells expressing human GIP R” value in test [1] was 0.022 nM. The “EC50, cAMP induction in HEK293 cells expressing human GLP-1 R” value in test [2] amounted to 0.02 nM.

B8: Compound 33 (peptide)
peptide: H-Y[Aib]EGTFTSDYSIYLDKK([γGlu-Palmitoyl])AQRAFVEWLLAQGPSSGAPPPS-NH2
SMILES: CCCCCCCCCCCCCCCC(=O)N[C@@H](CCC(=O)NCCCC[C@H](NC(=O)[C@H](CCCCN)NC(=O)[C@H](CC(=O)O)NC(=O)[C@H](CC(C)C)NC(=O)[C@H](Cc1ccc(O)cc1)NC(=O)[C@@H](NC(=O)[C@H](CO)NC(=O)[C@H](Cc1ccc(O)cc1)NC(=O)[C@H](CC(=O)O)NC(=O)[C@H](CO)NC(=O)[C@@H](NC(=O)[C@H](Cc1ccccc1)NC(=O)[C@@H](NC(=O)CNC(=O)[C@H](CCC(=O)O)NC(=O)C(C)(C)NC(=O)[C@@H](N)Cc1ccc(O)cc1)[C@@H](C)O)[C@@H](C)O)[C@@H](C)CC)C(=O)N[C@@H](C)C(=O)N[C@@H](CCC(N)=O)C(=O)N[C@@H](CCCNC(=N)N)C(=O)N[C@@H](C)C(=O)N[C@@H](Cc1ccccc1)C(=O)N[C@H](C(=O)N[C@@H](CCC(=O)O)C(=O)N[C@@H](Cc1c[nH]c2ccccc12)C(=O)N[C@@H](CC(C)C)C(=O)N[C@@H](CC(C)C)C(=O)N[C@@H](C)C(=O)N[C@@H](CCC(N)=O)C(=O)NCC(=O)N1CCC[C@H]1C(=O)N[C@@H](CO)C(=O)N[C@@H](CO)C(=O)NCC(=O)N[C@@H](C)C(=O)N1CCC[C@H]1C(=O)N1CCC[C@H]1C(=O)N1CCC[C@H]1C(=O)N[C@@H](CO)C(N)=O)C(C)C)C(=O)O
For B8, in test [1], the “EC50, cAMP induction in HEK293 cells expressing human GIP R” value came to 0.035 nM. Besides, the “EC50, cAMP induction in HEK293 cells expressing human GLP-1 R” value in test [2] was 0.031 nM.
